Target: Terbium (Tb) labeled-SNAP tagged ROBO2 expressed on HEK293 cells (Homo sapiens (Human)) (UniProt Q9HCK4)
Assay: HTRF competition, competitor d2-SLIT2-N, ROBO2 HEK293 cells

Sequence of Terbium (Tb) labeled-SNAP tagged ROBO2 expressed on HEK293 cells (Homo sapiens (Human)) (Q9HCK4 22-1378): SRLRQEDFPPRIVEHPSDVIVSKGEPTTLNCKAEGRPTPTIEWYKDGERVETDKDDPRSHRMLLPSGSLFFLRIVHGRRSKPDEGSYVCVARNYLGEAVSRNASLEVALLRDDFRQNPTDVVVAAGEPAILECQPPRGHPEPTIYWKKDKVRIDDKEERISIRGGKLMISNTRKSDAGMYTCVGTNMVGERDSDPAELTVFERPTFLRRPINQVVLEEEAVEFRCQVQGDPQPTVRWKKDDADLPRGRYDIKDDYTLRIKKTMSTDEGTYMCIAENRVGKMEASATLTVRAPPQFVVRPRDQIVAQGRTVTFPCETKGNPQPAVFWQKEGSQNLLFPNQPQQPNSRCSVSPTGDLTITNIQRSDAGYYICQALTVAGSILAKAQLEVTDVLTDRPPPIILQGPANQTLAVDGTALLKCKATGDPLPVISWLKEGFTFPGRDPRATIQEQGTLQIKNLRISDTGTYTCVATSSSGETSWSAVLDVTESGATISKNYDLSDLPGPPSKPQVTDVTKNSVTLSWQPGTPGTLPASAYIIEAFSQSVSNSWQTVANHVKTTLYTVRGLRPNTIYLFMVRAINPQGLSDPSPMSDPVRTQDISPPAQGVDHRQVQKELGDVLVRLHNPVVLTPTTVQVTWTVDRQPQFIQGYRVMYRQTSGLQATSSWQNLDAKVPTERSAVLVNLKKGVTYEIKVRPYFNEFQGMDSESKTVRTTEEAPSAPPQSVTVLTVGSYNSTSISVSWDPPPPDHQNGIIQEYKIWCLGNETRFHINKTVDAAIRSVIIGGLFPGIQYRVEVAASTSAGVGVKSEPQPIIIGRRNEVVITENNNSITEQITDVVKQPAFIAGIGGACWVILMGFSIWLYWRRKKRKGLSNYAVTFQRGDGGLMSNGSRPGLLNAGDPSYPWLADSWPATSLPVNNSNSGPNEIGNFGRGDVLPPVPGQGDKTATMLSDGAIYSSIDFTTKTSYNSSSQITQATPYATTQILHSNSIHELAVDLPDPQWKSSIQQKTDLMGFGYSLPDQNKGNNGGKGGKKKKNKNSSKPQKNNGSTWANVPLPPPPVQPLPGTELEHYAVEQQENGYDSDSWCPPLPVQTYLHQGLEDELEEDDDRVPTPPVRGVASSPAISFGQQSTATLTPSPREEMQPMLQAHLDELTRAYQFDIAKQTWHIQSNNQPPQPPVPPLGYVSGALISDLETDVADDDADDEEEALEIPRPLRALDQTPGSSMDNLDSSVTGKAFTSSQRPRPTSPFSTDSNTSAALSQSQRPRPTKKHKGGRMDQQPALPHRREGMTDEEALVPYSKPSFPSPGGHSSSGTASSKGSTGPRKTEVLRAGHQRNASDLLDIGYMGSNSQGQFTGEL

Question: Which IC50 does the source give for Control Ab (antibody) here?
Answer: 125 nM
